Measured values: the supplement of paper PMC10567573

B1: MMP1 (parent)
chain: FHGTRQYKFDPKTKRILTLQKANS
B2: SPACA3 (parent)
chain: FTSGFNAAALDYEADGSTNNGIFQ

Variants of: B1
Assay: protein stability index of a GFP-peptide fusion (GPS, HEK-293T) (PSI 1-6); higher = more stable
Conditions: c terminus: a fixed tail appended
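Also: lentivirally expressed fusions sorted by FACS into six bins by GFP to DsRed ratio, PSI derived from sequencing read proportions per bin multiplied by bin number.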

Protein stability index: each site, then its substitutions
K12: D 1.53; G 1.47; A 1.87; C 1.86; I 1.95; E 2.4; F 2.27; H 2.21
F1: R 3.31; I 3.12; Y 2.51; P 3.17; M 3.13; G 3.44; T 3.4; V 3.18; K 3.33; N 3.34; A 3; W 2.35; E 3.91; H 3.12; D 3.65; C 2.95; S 3.43; Q 3.32; L 3.05
G3: A 2.02; V 2.3; R 1.6; D 2.29; T 2.1; S 1.54; W 2.02; L 1.63; P 2.68; F 1.58; Q 1.67; I 1.78; H 2.23; N 2.77; Y 1.96; M 1.78; C 2.63; E 2.61; K 1.93
R5: F 1.7; I 2.21; T 1.68; W 2.45; P 2.32; S 1.72; H 2.07; L 2.2; N 1.98; E 2.02; Q 1.83; G 1.88; A 1.8; V 2.04; M 2.3; Y 2.13; D 2.38; K 2.55; C 1.79
K8: I 2.49; H 1.76; W 3.37; C 2.73; L 1.64; N 2.71; G 2.24; E 2.21; T 2.5; P 1.71; Q 1.78; Y 2.22; D 2.07; S 2.52; A 2.04; M 2.63; V 1.74; R 2.65; F 2.76
T4: V 1.69; S 2.08; H 1.68; R 2.06; Q 2.95; F 3.12; C 1.6; K 2.17; A 1.81; L 1.26; Y 2.98; D 2.43; G 1.78; P 1.61; M 1.8; I 2.13; E 2.29; N 2.38; W 3.19
Q6: R 1.5; D 1.87; T 1.6; L 1.83; E 2.12; I 2.39; M 1.82; N 1.92; P 1.46; Y 2.04; F 3.64; K 1.92; W 2.63; V 2.96; H 4.5; S 1.67; G 1.61; C 1.9; A 2.15
F9: G 2.24; A 1.74; K 2.17; L 2.05; S 2.08; W 2.27; P 2.13; Q 1.6; Y 1.75; C 2.48; N 2.39; R 2.39; I 1.68; E 1.76; V 1.58; M 1.67; T 1.55; H 1.98; D 2.27
D10: A 1.88; N 1.22; S 2.36; Y 2.01; F 2.45; H 1.95; M 2.18; K 1.83; Q 2.46; R 1.62; G 2.15; W 1.77; C 1.49; V 1.42; E 1.7; L 1.5; I 2.14; P 1.72; T 2.03
Y7: G 1.77; K 2.55; D 2.38; I 1.94; R 2.4; A 2.31; H 2.18; T 1.89; Q 2.45; N 2.46; F 1.75; C 1.97; L 2.57; E 2.5; V 2.27; S 2.74; M 1.72; W 3.02; P 2.08
P11: Q 2.29; N 1.93; W 2.19; Y 2.13; M 1.83; F 1.07; H 1.98; K 1.83; G 1.66; S 1.78; I 2.57; L 1.52; D 2.01; R 1.88; E 1.67; T 2.43; V 1.8; C 1.79; A 2.31
H2: I 2.47; C 1.88; A 1.69; P 1.68; Q 2.19; F 2.34; L 2.36; G 2.55; S 2.39; N 2.33; R 3.04; K 2.57; T 2.04; D 3.55; M 2.53; W 2.29; Y 2.35; E 3.03; V 1.91

Variants of: B2
Assay: as above
Conditions: c terminus: a fixed tail appended

Protein stability index of substitutions, site by site:
N20: Q 1.84; A 2.31; M 1.87; K 1.98; P 2.28; F 2.03; Y 2.19; R 1.66; L 2.04; V 2; H 1.75; G 1.96; T 1.93; S 2.15; C 2.33; I 1.9; D 2.51; W 1.43; E 2.21
N19: F 2.24; G 2.03; H 2.52; E 2.23; Q 2.44; I 1.79; P 2.21; Y 1.83; K 1.63; R 1.66; L 1.78; D 2.38; S 2.38; T 1.84; M 2.21; C 2.31; W 1.55; A 1.67; V 1.76
I22: E 2.4; L 1.74; A 2.36; F 1.69; S 1.86; R 2.09; H 1.95; M 2.5; Y 2.06; K 1.93; G 2.25; Q 2.13; W 2.15; V 1.69; P 1.94; C 1.74; N 2.13; T 2.06; D 2.41
T18: Y 2.02; V 1.5; W 1.59; S 2.08
F23: C 1.9; L 2.08; I 2; H 2.42; R 2.16; Y 1.98; G 2.54; N 2.4; Q 2.36; M 2.55; K 2.48; E 2.28; D 2.5; V 2.11; P 2.42; W 1.64; A 2.1; T 2.92; S 2.2
G21: H 1.98; I 1.51; A 1.91; Q 1.7; S 1.72; V 1.98; W 1.58; P 2.12; Y 1.75; L 2.06; M 1.51; K 2.33; E 2.28; R 1.75; N 1.84; D 1.9; F 1.8; C 1.97; T 2.02
Q24: R 2.2; M 1.46; K 1.87; L 1.71; I 2.18; H 2.46; E 2.33; G 2.36; Y 1.74; A 1.47; T 2.23; V 1.17; C 1.93; F 1.92; N 1.67; P 1.99; D 2.02; S 1.85
